Assay in all cases: cell-based or functional assay
Assay [1] concerns the target recombinant human Factor IXa K132A/R150A (human) (UniProt P00740).
Assay [2] deals with recombinant human Factor IXa K126A/R150A (human) (UniProt P00740).
The target of assay [3] is recombinant human Factor IXa K126A/K132A/R150A (human) (UniProt P00740).
Assay [4] has as its target recombinant human Factor IXa K126A (human) (UniProt P00740).
Assay [5] deals with recombinant human Factor IXa R150A (human) (UniProt P00740).
Assay [6] concerns the target human plasma-derived Factor IXa (human) (UniProt P00740).
The target of assay [7] is recombinant human Factor IXa wild-type (human) (UniProt P00740).
Assay [8] concerns the target recombinant human Factor IXa K132A (human) (UniProt P00740).
Assay [9] addresses recombinant human Factor IXa K126A/K132A (human) (UniProt P00740).

Take “human plasma-derived antithrombin (from UniProt P01008 33-464)”: the k2, inhibition of FIXa by ATIII/Fond (460 nM fondaparinux) stood at 4100 M⁻¹ min⁻¹ in assay [1]; 3800 M⁻¹ min⁻¹ in [2]; 4100 M⁻¹ min⁻¹ in assay [3]; 198000 M⁻¹ min⁻¹ in assay [4]; 4300 M⁻¹ min⁻¹ in assay [5]; 211000 M⁻¹ min⁻¹ in [6]. Also, the k2, inhibition of FIXa by ATIII/Fond (460 nM fondaparinux) in assay [7] worked out at 197000 M⁻¹ min⁻¹; in assay [8], 195000 M⁻¹ min⁻¹; in [9], 158000 M⁻¹ min⁻¹. In addition, the k2, inhibition of FIXa by ATIII/UFH (0.24 U/mL) in assay [3] worked out at 400 M⁻¹ min⁻¹; in assay [4], 93400 M⁻¹ min⁻¹; in assay [5] it was 15700 M⁻¹ min⁻¹; in [6], 206000 M⁻¹ min⁻¹; in [7] it was 260000 M⁻¹ min⁻¹; in assay [8] it was 224000 M⁻¹ min⁻¹. The k2, inhibition of FIXa by ATIII/UFH (0.24 U/mL) in assay [9] amounted to 25400 M⁻¹ min⁻¹. The k2, inhibition of FIXa by ATIII, no heparin in assay [7] is 3100 M⁻¹ min⁻¹.
